Test results: the supplement of paper PMC5998384

Legend:
[1] = tested on: HeLa Kyoto; assay: solubility in G1/S (NP-40 vs SDS abundance) (log2 ratio); higher = more soluble; conditions: cell cycle stage: G1/S
[2] = tested on: HeLa Kyoto; assay: solubility change mitosis vs G1/S (difference of NP-40 vs SDS log2 ratios) (log2 ratio difference); higher = more soluble in mitosis
[3] = tested on: HeLa Kyoto; assay: melting temperature (median over replicates), in situ; higher = more thermally stable
[4] = tested on: HeLa Kyoto; assay: thermal stability score vs G1/S (z-score of summed log2 fold changes over temperatures); higher = more thermally stable than in G1/S
[5] = cell cycle stage: early G1 (4.5 h after nocodazole release)
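For melting temperature (median over replicates), in situ in this document: HeLa Kyoto cells synchronized by double thymidine or nocodazole block, proteins quantified by TMT10plex mass spectrometry, three independent biological replicates.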
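For solubility change mitosis vs G1/S (difference of NP-40 vs SDS log2 ratios) in this document: synchronized HeLa Kyoto cells (double thymidine block for G1/S, nocodazole release for mitosis), protein amounts in NP-40 versus SDS lysates quantified by mass spectrometry, three biological replicates.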
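For solubility in G1/S (NP-40 vs SDS abundance) in this document: HeLa Kyoto cells arrested at G1/S by double thymidine block, proteins quantified by TMT10plex mass spectrometry in mild NP-40 versus SDS extracts, three biological replicates.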
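For thermal stability score vs G1/S (z-score of summed log2 fold changes over temperatures) in this document: synchronized HeLa Kyoto cells, proteins quantified by TMT10plex mass spectrometry, three biological replicates, mitosis taken 0.5 h after nocodazole release, G1/S directly after double thymidine block.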

Sequence | solubility in G1/S (log2) [1] | solubility change mitosis (log2) [2] | melting temperature ([3]; cell cycle stage: G1/S) [°C] | melting temperature ([3]; cell cycle stage: mitosis) [°C] | thermal stability score [4, 5] | thermal stability score ([4]; cell cycle stage: mitosis)
MASQPNSSAKKKEEKGKNIQVVVRCRPFNLAERKASAHSIVECDPVRKEVSVRTGGLADKSSRKTYTFDMVFGASTKQIDVYRSVVCPILDEVIMGYNCTIFAYGQTGTGKTFTMEGERSPNEEYTWEEDPLAGIIPRTLHQIFEKLTDNGTEFSVKVSLLEIYNEELFDLLNPSSDVSERLQMFDDPRNKRGVIIKGLEEITVHNKDEVYQILEKGAAKRTTAATLMNAYSSRSHSVFSVTIHMKETTIDGEELVKIGKLNLVDLAGSENIGRSGAVDKRAREAGNINQSLLTLGRVITALVERTPHVPYRESKLTRILQDSLGGRTRTSIIATISPASLNLEETLSTLEYAHRAKNILNKPEVNQKLTKKALIKEYTEEIERLKRDLAAAREKNGVYISEENFRVMSGKLTVQEEQIVELIEKIGAVEEELNRVTELFMDNKNELDQCKSDLQNKTQELETTQKHLQETKLQLVKEEYITSALESTEEKLHDAASKLLNTVEETTKDVSGLHSKLDRKKAVDQHNAEAQDIFGKNLNSLFNNMEELIKDGSSKQKAMLEVHKTLFGNLLSSSVSALDTITTVALGSLTSIPENVSTHVSQIFNMILKEQSLAAESKTVLQELINVLKTDLLSSLEMILSPTVVSILKINSQLKHIFKTSLTVADKIEDQKKELDGFLSILCNNLHELQENTICSLVESQKQCGNLTEDLKTIKQTHSQELCKLMNLWTERFCALEEKCENIQKPLSSVQENIQQKSKDIVNKMTFHSQKFCADSDGFSQELRNFNQEGTKLVEESVKHSDKLNGNLEKISQETEQRCESLNTRTVYFSEQWVSSLNEREQELHNLLEVVSQCCEASSSDITEKSDGRKAAHEKQHNIFLDQMTIDEDKLIAQNLELNETIKIGLTKLNCFLEQDLKLDIPTGTTPQRKSYLYPSTLVRTEPREHLLDQLKRKQPELLMMLNCSENNKEETIPDVDVEEAVLGQYTEEPLSQEPSVDAGVDCSSIGGVPFFQHKKSHGKDKENRGINTLERSKVEETTEHLVTKSRLPLRAQINL [KIF11] | -0.0398 | -0.143 | 48.2 | 49 | 6 | 5.17
MAAWGRRRLGPGSSGGSARERVSLSATDCYIVHEIYNGENAQDQFEYELEQALEAQYKYIVIEPTRIGDETARWITVGNCLHKTAVLAGTACLFTPLALPLDYSHYISLPAGVLSLACCTLYGISWQFDPCCKYQVEYDAYKLSRLPLHTLTSSTPVVLVRKDDLHRKRLHNTIALAALVYCVKKIYELYAV [TMEM11] | -0.0105 | -0.0939 | 52.2 | 51.4 | -0.391 | -1.34
MAQYKGAASEAGRAMHLMKKREKQREQMEQMKQRIAEENIMKSNIDKKFSAHYDAVEAELKSSTVGLVTLNDMKAKQEALVKEREKQLAKKEQSKELQMKLEKLREKERKKEAKRKISSLSFTLEEEEEGGEEEEEAAMYEEEMEREEITTKKRKLGKNPDVDTSFLPDRDREEEENRLREELRQEWEAKQEKIKSEEIEITFSYWDGSGHRRTVKMRKGNTMQQFLQKALEILRKDFSELRSAGVEQLMYIKEDLIIPHHHSFYDFIVTKARGKSGPLFNFDVHDDVRLLSDATVEKDESHAGKVVLRSWYEKNKHIFPASRWEPYDPEKKWDKYTIR [FAM50A] | 0.0519 | -0.0697 | 48.4 | 50.3 | 1.03 | 2.04
MPAVDKLLLEEALQDSPQTRSLLSVFEEDAGTLTDYTNQLLQAMQRVYGAQNEMCLATQQLSKQLLAYEKQNFALGKGDEEVISTLHYFSKVVDELNLLHTELAKQLADTMVLPIIQFREKDLTEVSTLKDLFGLASNEHDLSMAKYSRLPKKKENEKVKTEVGKEVAAARRKQHLSSLQYYCALNALQYRKQMAMMEPMIGFAHGQINFFKKGAEMFSKRMDSFLSSVADMVQSIQVELEAEAEKMRVSQQELLSVDESVYTPDSDVAAPQINRNLIQKAGYLNLRNKTGLVTTTWERLYFFTQGGNLMCQPRGAVAGGLIQDLDNCSVMAVDCEDRRYCFQITTPNGKSGIILQAESRKENEEWICAINNISRQIYLTDNPEAVAIKLNQTALQAVTPITSFGKKQESSCPSQNLKNSEMENENDKIVPKATASLPEAEELIAPGTPIQFDIVLPATEFLDQNRGSRRTNPFGETEDESFPEAEDSLLQQMFIVRFLGSMAVKTDSTTEVIYEAMRQVLAARAIHNIFRMTESHLMVTSQSLRLIDPQTQVSRANFELTSVTQFAAHQENKRLVGFVIRVPESTGEESLSTYIFESNSEGEKICYAINLGKEIIEVQKDPEALAQLMLSIPLTNDGKYVLLNDQPDDDDGNPNEHRGAESEA [APPL2] | 0.193 | -0.0416 | 49.1 | 49.5 | -0.102 | 0.993
MGSPEDDLIGIPFPDHSSELLSCLNEQRQLGHLCDLTIRTQGLEYRTHRAVLAACSHYFKKLFTEGGGGAVMGAGGSGTATGGAGAGVCELDFVGPEALGALLEFAYTATLTTSSANMPAVLQAARLLEIPCVIAACMEILQGSGLEAPSPDEDDCERARQYLEAFATATASGVPNGEDSPPQVPLPPPPPPPPRPVARRSRKPRKAFLQTKGARANHLVPEVPTVPAHPLTYEEEEVAGRVGSSGGSGPGDSYSPPTGTASPPEGPQSYEPYEGEEEEEELVYPPAYGLAQGGGPPLSPEELGSDEDAIDPDLMAYLSSLHQDNLAPGLDSQDKLVRKRRSQMPQECPVCHKIIHGAGKLPRHMRTHTGEKPFACEVCGVRFTRNDKLKIHMRKHTGERPYSCPHCPARFLHSYDLKNHMHLHTGDRPYECHLCHKAFAKEDHLQRHLKGQNCLEVRTRRRRKDDAPPHYPPPSTAAASPAGLDLSNGHLDTFRLSLARFWEQSAPTGPPVSTPGPPDDDEEEGAPTTPQAEGAMESS [ZBTB7B] | -0.127 | 0.171 | 54.7 | 55 | 1.42 | 0.814
MKLKQRVVLLAILLVIFIFTKVFLIDNLDTSAANREDQRAFHRMMTGLRVELAPKLDHTLQSPWEIAAQWVVPREVYPEETPELGAVMHAMATKKIIKADVGYKGTQLKALLILEGGQKVVFKPKRYSRDHVVEGEPYAGYDRHNAEVAAFHLDRILGFHRAPLVVGRFVNLRTEIKPVATEQLLSTFLTVGNNTCFYGKCYYCRETEPACADGDIMEGSVTLWLPDVWPLQKHRHPWGRTYREGKLARWEYDESYCDAVKKTSPYDSGPRLLDIIDTAVFDYLIGNADRHHYESFQDDEGASMLILLDNAKSFGNPSLDERSILAPLYQCCIIRVSTWNRLNYLKNGVLKSALKSAMAHDPISPVLSDPHLDAVDQRLLSVLATVKQCTDQFGMDTVLVEDRMPLSHL [FAM20B] | -0.162 | 0.0415 | 51.8 | 53.3 | 2.65 | 2.53
MADPEVCCFITKILCAHGGRMALDALLQEIALSEPQLCEVLQVAGPDRFVVLETGGEAGITRSVVATTRARVCRRKYCQRPCDNLHLCKLNLLGRCNYSQSERNLCKYSHEVLSEENFKVLKNHELSGLNKEELAVLLLQSDPFFMPEICKSYKGEGRQQICNQQPPCSRLHICDHFTRGNCRFPNCLRSHNLMDRKVLAIMREHGLNPDVVQNIQDICNSKHMQKNPPGPRAPSSHRRNMAYRARSKSRDRFFQGSQEFLASASASAERSCTPSPDQISHRASLEDAPVDDLTRKFTYLGSQDRARPPSGSSKATDLGGTSQAGTSQRFLENGSQEDLLHGNPGSTYLASNSTSAPNWKSLTSWTNDQGARRKTVFSPTLPAARSSLGSLQTPEAVTTRKGTGLLSSDYRIINGKSGTQDIQPGPLFNNNADGVATDITSTRSLNYKSTSSGHREISSPRIQDAGPASRDVQATGRIADDADPRVALVNDSLSDVTSTTSSRVDDHDSEEICLDHLCKGCPLNGSCSKVHFHLPYRWQMLIGKTWTDFEHMETIEKGYCNPGIHLCSVGSYTINFRVMSCDSFPIRRLSTPSSVTKPANSVFTTKWIWYWKNESGTWIQYGEEKDKRKNSNVDSSYLESLYQSCPRGVVPFQAGSRNYELSFQGMIQTNIASKTQKDVIRRPTFVPQWYVQQMKRGPDHQPAKTSSVSLTATFRPQEDFCFLSSKKYKLSEIHHLHPEYVRVSEHFKASMKNFKIEKIKKIENSELLDKFTWKKSQMKEEGKLLFYATSRAYVESICSNNFDSFLHETHENKYGKGIYFAKDAIYSHKNCPYDAKNVVMFVAQVLVGKFTEGNITYTSPPPQFDSCVDTRSNPSVFVIFQKDQVYPQYVIEYTEDKACVIS [ZC3HAV1] | -0.202 | 0.0381 | 48.1 | 48.8 | 1.07 | 1.97
MSWAARPPFLPQRHAAGQCGPVGVRKEMHCGVASRWRRRRPWLDPAAAAAAAVAGGEQQTPEPEPGEAGRDGMGDSGRDSRSPDSSSPNPLPQGVPPPSPPGPPLPPSTAPSLGGSGAPPPPPMPPPPLGSPFPVISSSMGSPGLPPPAPPGFSGPVSSPQINSTVSLPGGGSGPPEDVKPPVLGVRGLHCPPPPGGPGAGKRLCAICGDRSSGKHYGVYSCEGCKGFFKRTIRKDLTYSCRDNKDCTVDKRQRNRCQYCRYQKCLATGMKREAVQEERQRGKDKDGDGEGAGGAPEEMPVDRILEAELAVEQKSDQGVEGPGGTGGSGSSPNDPVTNICQAADKQLFTLVEWAKRIPHFSSLPLDDQVILLRAGWNELLIASFSHRSIDVRDGILLATGLHVHRNSAHSAGVGAIFDRVLTELVSKMRDMRMDKTELGCLRAIILFNPDAKGLSNPSEVEVLREKVYASLETYCKQKYPEQQGRFAKLLLRLPALRSIGLKCLEHLFFFKLIGDTPIDTFLMEMLEAPHQLA [RXRB] | 0.264 | -0.14 | 47.6 | 49.1 | 0.348 | 0.163
MWLDRRGWLRVLGHWRYDLRRPSFTRTWSGDKGPMAETVSTQVGTEGGLRASHQQNGDAGGDAKVELSPGPPKPAGREVEPAPVGGEHPSAAAPGPGKHKKRRGATRERVVPPPKKRRTGVSFGDEHFAETSYYFEGGLRKVRPYYFDFRTYCKGRWVGHSLLHVFSTEFRAQPLAYYEAAVRAGRLQLNEKPVQDLNIVLKDNDFLRNTVHRHEPPVTAEPIRLLAENEDVVVVDKPSSIPVHPCGRFRHNTVIFILGKEHQLKELHPLHRLDRLTSGVLMFAKTAAVSERIHEQVRDRQLEKEYVCRVEGEFPTEEVTCKEPILVVSYKVGVCRVDPRGKPCETVFQRLSYNGQSSVVRCRPLTGRTHQIRVHLQFLGHPILNDPIYNSVAWGPSRGRGGYIPKTNEELLRDLVAEHQAKQSLDVLDLCEGDLSPGLTDSTAPSSELGKDDLEELAAAAQKMEEVAEAAPQELDTIALASEKAVETDVMNQETDPLCAECRLVRQDPLPQDLVMFLHALRYKGPGFEYFSPMPAWAQDDWQKD [RPUSD2] | -0.0296 | 0.0172 | 54.1 | 54.1 | -1.46 | -2.6
MANEEDDPVVQEIDVYLAKSLAEKLYLFQYPVRPASMTYDDIPHLSAKIKPKQQKVELEMAIDTLNPNYCRSKGEQIALNVDGACADETSTYSSKLMDKQTFCSSQTTSNTSRYAAALYRQGELHLTPLHGILQLRPSFSYLDKADAKHREREAANEAGDSSQDEAEDDVKQITVRFSRPESEQARQRRVQSYEFLQKKHAEEPWVHLHYYGLRDSRSEHERQYLLCPGSSGVENTELVKSPSEYLMMLMPPSQEEEKDKPVAPSNVLSMAQLRTLPLADQIKILMKNVKVMPFANLMSLLGPSIDSVAVLRGIQKVAMLVQGNWVVKSDILYPKDSSSPHSGVPAEVLCRGRDFVMWKFTQSRWVVRKEVATVTKLCAEDVKDFLEHMAVVRINKGWEFILPYDGEFIKKHPDVVQRQHMLWTGIQAKLEKVYNLVKETMPKKPDAQSGPAGLVCGDQRIQVAKTKAQQNHALLERELQRRKEQLRVPAVPPGVRIKEEPVSEEGEEDEEQEAEEEPMDTSPSGLHSKLANGLPLGRAAGTDSFNGHPPQGCASTPVARELKAFVEATFQRQFVLTLSELKRLFNLHLASLPPGHTLFSGISDRMLQDTVLAAGCKQILVPFPPQTAASPDEQKVFALWESGDMSDQHRQVLLEIFSKNYRVRRNMIQSRLTQECGEDLSKQEVDKVLKDCCVSYGGMWYLKGTVQS [POLR3E] | 0.128 | -0.0491 | 49.8 | 49.9 | 0.337 | 0.588
